Results published in US20040248785A1.

Assays:
[1] = biological target: low density lipoprotein receptor-related protein / alpha2-macroglobulin receptor (LRP), isolated from human placenta (human) (UniProt Q07954); assay: homologous displacement on LRP-coated wells
[2] = biological target: low density lipoprotein receptor-related protein / alpha2-macroglobulin receptor (LRP), isolated from human placenta (human) (UniProt Q07954); assay: homologous displacement of 125I-fVIII (1 nM) by unlabeled fVIII on LRP-coated wells, single class of sites, LIGAND
[3] = biological target: low density lipoprotein receptor-related protein / alpha2-macroglobulin receptor (LRP), isolated from human placenta (human) (UniProt Q07954); assay: solid-phase homologous ligand displacement: 125I-fVIII (1 nM) on LRP-coated wells, 1 h at 37 C, rising unlabeled fVIII

Chain of low density lipoprotein receptor-related protein / alpha2-macroglobulin receptor (LRP), isolated from human placenta (human) (Q07954 20-4544): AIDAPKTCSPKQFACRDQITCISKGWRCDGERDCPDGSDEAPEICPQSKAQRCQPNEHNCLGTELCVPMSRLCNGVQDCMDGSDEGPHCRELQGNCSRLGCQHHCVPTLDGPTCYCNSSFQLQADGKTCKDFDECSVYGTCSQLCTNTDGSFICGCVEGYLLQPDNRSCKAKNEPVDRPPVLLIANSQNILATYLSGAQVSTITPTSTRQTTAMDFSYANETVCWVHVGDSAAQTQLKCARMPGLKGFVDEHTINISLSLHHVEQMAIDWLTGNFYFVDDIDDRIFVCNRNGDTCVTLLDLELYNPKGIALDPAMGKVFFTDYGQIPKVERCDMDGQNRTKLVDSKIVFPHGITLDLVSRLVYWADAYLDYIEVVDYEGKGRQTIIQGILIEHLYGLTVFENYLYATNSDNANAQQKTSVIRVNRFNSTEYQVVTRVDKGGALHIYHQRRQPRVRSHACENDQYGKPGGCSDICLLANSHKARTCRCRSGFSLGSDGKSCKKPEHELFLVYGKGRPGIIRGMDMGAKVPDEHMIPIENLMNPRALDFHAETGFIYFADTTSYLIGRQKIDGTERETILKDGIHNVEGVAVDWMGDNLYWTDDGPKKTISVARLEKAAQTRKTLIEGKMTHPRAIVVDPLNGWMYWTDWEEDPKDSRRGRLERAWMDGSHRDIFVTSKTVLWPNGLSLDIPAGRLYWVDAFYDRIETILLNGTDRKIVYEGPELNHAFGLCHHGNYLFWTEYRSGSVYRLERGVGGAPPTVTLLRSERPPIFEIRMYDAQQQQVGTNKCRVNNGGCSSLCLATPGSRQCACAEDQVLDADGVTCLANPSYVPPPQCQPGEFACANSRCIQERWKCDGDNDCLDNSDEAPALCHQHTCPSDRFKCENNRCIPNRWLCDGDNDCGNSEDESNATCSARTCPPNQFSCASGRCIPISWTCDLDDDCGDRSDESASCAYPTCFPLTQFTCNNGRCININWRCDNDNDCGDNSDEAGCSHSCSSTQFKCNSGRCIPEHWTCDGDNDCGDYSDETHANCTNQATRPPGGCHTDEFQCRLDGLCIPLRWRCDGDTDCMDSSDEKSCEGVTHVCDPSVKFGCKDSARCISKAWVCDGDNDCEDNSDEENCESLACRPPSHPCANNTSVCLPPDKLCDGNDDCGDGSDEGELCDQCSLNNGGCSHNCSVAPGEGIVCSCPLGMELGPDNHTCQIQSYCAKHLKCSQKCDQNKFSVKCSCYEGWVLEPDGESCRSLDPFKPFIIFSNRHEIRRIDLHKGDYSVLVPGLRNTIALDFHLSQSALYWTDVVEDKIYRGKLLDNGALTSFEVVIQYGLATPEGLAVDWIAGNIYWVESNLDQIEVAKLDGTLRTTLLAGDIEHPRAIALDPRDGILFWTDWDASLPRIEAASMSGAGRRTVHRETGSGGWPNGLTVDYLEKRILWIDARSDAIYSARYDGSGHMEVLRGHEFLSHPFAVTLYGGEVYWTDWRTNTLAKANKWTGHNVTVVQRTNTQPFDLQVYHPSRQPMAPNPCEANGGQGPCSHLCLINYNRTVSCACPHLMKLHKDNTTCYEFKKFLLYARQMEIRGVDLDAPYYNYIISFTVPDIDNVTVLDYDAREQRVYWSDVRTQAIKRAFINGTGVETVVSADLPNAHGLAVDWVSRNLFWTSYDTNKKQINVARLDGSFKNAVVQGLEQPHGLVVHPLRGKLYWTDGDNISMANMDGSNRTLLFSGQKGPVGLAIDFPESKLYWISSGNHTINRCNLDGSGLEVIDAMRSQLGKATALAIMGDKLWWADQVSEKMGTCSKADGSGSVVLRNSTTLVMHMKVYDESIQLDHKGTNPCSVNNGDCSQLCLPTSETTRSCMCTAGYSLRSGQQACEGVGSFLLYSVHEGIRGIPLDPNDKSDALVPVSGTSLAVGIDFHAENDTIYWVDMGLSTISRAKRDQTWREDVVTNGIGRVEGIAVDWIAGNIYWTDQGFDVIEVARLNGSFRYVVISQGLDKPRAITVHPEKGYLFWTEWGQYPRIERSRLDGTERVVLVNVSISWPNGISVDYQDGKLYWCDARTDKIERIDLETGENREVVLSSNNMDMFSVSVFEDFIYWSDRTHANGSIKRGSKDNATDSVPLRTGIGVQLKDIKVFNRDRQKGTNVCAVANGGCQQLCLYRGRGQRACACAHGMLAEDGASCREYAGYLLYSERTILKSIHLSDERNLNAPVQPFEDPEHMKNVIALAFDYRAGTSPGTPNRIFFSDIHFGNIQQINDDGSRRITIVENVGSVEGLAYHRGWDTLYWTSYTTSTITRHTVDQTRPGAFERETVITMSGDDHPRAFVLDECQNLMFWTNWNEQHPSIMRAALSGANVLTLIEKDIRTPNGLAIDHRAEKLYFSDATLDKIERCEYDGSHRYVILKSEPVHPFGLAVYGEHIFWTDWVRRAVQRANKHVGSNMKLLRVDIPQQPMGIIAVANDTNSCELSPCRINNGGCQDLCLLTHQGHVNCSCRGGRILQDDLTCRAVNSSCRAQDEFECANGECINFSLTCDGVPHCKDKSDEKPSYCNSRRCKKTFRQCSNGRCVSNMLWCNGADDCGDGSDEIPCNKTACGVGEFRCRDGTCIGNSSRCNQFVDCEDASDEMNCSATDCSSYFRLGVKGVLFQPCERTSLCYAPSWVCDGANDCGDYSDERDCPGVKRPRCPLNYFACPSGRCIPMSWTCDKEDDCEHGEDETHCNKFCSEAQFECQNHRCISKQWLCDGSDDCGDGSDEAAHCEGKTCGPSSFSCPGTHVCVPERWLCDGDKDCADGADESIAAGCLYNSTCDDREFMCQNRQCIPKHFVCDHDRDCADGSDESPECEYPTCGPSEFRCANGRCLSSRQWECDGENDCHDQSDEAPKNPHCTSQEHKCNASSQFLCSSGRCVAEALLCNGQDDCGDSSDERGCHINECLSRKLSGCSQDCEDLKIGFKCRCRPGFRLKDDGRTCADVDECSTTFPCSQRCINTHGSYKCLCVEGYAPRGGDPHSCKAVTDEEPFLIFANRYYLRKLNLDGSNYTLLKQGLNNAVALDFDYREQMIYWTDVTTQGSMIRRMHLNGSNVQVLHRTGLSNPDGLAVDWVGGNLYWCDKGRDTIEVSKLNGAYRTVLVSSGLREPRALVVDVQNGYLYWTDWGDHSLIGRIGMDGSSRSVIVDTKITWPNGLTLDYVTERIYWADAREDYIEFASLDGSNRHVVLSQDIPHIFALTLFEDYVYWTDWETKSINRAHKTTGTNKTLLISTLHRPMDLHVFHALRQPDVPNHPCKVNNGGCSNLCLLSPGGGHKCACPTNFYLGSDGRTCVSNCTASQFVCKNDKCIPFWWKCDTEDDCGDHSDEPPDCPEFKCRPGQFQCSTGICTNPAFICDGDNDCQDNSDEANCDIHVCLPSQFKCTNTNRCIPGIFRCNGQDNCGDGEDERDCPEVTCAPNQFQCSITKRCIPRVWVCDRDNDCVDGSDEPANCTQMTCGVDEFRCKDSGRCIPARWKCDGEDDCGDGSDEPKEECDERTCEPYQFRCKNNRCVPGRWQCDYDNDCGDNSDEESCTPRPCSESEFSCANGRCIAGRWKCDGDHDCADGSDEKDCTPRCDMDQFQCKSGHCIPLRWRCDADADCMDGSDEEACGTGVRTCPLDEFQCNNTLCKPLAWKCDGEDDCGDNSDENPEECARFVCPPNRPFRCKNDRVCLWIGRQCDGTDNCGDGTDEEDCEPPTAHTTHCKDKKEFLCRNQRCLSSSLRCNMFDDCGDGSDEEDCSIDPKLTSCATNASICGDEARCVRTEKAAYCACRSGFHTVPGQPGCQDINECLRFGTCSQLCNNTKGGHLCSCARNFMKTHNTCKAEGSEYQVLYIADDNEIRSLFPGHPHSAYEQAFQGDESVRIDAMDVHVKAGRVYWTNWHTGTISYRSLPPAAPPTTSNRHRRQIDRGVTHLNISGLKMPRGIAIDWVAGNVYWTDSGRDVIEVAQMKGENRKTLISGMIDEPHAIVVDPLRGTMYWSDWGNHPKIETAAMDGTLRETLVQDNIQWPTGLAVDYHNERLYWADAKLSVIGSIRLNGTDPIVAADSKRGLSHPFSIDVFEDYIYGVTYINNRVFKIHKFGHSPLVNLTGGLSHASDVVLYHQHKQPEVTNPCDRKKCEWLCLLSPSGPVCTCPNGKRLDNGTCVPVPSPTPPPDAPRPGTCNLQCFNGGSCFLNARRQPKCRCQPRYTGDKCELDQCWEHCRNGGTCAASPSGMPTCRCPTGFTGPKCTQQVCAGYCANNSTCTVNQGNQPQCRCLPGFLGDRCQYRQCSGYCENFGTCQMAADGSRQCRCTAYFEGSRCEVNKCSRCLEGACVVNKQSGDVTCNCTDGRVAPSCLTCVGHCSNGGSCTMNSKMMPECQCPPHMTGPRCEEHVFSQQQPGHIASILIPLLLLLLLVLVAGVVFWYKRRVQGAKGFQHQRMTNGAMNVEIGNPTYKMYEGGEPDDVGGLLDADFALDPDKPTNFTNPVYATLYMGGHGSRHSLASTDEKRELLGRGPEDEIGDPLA

factor VIII (fVIII), purified from therapeutic concentrates of Method M, American Red Cross, P00451 20-1667; P00451 1668-2351
percent of 125I-fVIII binding competed by an excess of unlabeled fVIII [1]: > 90%
Kd [2]: 116 nM
IC50 (read off the curve) [3]: 100 nM
